Measured values: patent US20240400635A1 (Novo Nordisk, published 2024)
Where a chain is given by its changes, count along the chain named.

B1: [8G, 22E, 26R, 36G]GLP-1(7-37)-(GAQP)x2, … (ligand)
chain: HGEGTFTSDVSSYLEEQAAREFIAWLVKGGGGAQPGAQPCGAQPGAQPAHPIPDSSPLLQFGGQVRQRYLYTDDAQQTEAHLEIREDGTVGGAADQSPESLLQLKALKPGVIQILGVKTSRFLCQRPDGALYGSLHFDPEACSFRELLLEDGYNVYQSEAHGLPLHLPGQKSPHRDPAPRGPARFLPLPGLPPALPEPPGILAPQPPDVGSSDPLSLVGPSQGRSPSYCSHGEGTFTSDVSSYLEEQAAREFIAWLVKGGGGAQPGAQPCGAQPGAQPAHPIPDSSPLLQFGGQVRQRYLYTDDAQQTEAHLEIREDGTVGGAADQSPESLLQLKALKPGVIQILGVKTSRFLCQRPDGALYGSLHFDPEACSFRELLLEDGYNVYQSEAHGLPLHLPGQKSPHRDPAPRGPARFLPLPGLPPALPEPPGILAPQPPDVGSSDPLSLVGPSQGRSPSYCS
modifications: Cys of the spacer (residue 40 of the chain) and Cys180 of the FGF21 part (FGF21(1-181) numbering; residue 229 of the chain) each S-alkylated with substituent Chem. 7
B2: {S27-[(28S)-(28,46-Dicarboxy-2,7,16,25,30-pentaoxo-9,12,18,21-tetraoxa-3,6,15,24,29-pentaazahexatetracontan-1-yl)]-[Gly8,36,Glu22,Cys27]-GLP-1(human)-(7-37)-pep … (ligand)
chain: HGEGTFTSDVSSYLEEQAAKCFIAWLVKGGGGAQPGAQPGAQPGAQPGAQPGAQPGAQPGAQPGAQPGAQPGAQPGAQPGAQPGAQPGAQPGAQPGAQPGAQPGAQPGAQPGAQPGAQPGAQPGAQPGAQPGAQPGAQPGAQPGAQPGAQPGAQPGAQPAHPIPDSSPLLQFGGQVRQRYLYTDDAQQTEAHLEIREDGTVGGAADQSPESLLQLKALKPGVIQILGVKTSRFLCQRPDGALYGSLHFDPEACSFRELLLEDGYNVYQSEAHGLPLHLPGQKSPHRDPAPRGPARFLPLPGLPPALPEPPGILAPQPPDVGSSDPLSLVGGSQGRSPSYES
modifications: Cys27 of the GLP-1 part (GLP-1(7-37) numbering; residue 21 of the chain) S-alkylated with (28S)-(28,46-Dicarboxy-2,7,16,25,30-pentaoxo-9,12,18,21-tetraoxa-3,6,15,24,29-pentaazahexatetracontan-1-yl) (substituent Chem. 7)
B3: [8G, 22E, 26R, 36G]GLP-1(7-37)-(GAQP)x2, … (ligand)
chain: HGEGTFTSDVSSYLEEQAAREFIAWLVKGGGGAQPGAQPCGAQPAHPIPDSSPLLQFGGQVRQRYLYTDDAQQTEAHLEIREDGTVGGAADQSPESLLQLKALKPGVIQILGVKTSRFLCQRPDGALYGSLHFDPEACSFRELLLEDGYNVYQSEAHGLPLHLPGQKSPHRDPAPRGPARFLPLPGLPPALPEPPGILAPQPPDVGSSDPLSLVGGSQGRSPSYAS
modifications: Cys of the spacer (residue 40 of the chain) S-alkylated with substituent Chem. 7
B4: S{Beta-27}-[2-[2-[[2-[2-[2-[[2-[2-[2-[[(4S)-4-carboxy-4-(17-carboxyheptadecanoyl-amino)butanoyl]amino]ethoxy]ethoxy]acetyl]amino]ethoxy]ethoxy]acetyl]amino]-eth … (ligand)
chain: HGEGTFTSDVSSYLEEQAAKCFIAWLVKGGGGAQPGAQPGAQPGAQPGAQPGAQPGAQPGAQPGAQPGAQPGAQPGAQPGAQPGAQPGAQPGAQPAHPIPDSSPLLQFGGQVRQRYLYTDDAQQTEAHLEIREDGTVGGAADQSPESLLQLKALKPGVIQILGVKTSRFLCQRPDGALYGSLHFDPEACSFRELLLEDGYNVYQSEAHGLPLHLPGQKSPHRDPAPRGPARFLPLPGLPPALPEPPGILAPQPPDVGSSDPLSLVGGSQGRSPSYES
modifications: Cys27 of the GLP-1 part (GLP-1(7-37) numbering; residue 21 of the chain) S-alkylated with substituent Chem. 7
B5: S{Beta-27}-[2-[2-[[2-[2-[2-[[2-[2-[2-[[(4S)-4-carboxy-4-(17-carboxyheptadecanoyl-amino)butanoyl]amino]ethoxy]ethoxy]acetyl]amino]ethoxy]ethoxy]acetyl]amino]-eth … (ligand)
chain: HGEGTFTSDVSSYLEEQAAKCFIAWLVKGGGGAQPGAQPGAQPGAQPGAQPGAQPGAQPGAQPAHPIPDSSPLLQFGGQVRQRYLYTDDAQQTEAHLEIREDGTVGGAADQSPESLLQLKALKPGVIQILGVKTSRFLCQRPDGALYGSLHFDPEACSFRELLLEDGYNVYQSEAHGLPLHLPGQKSPHRDPAPRGPARFLPLPGLPPALPEPPGILAPQPPDVGSSDPLSLVGGSQGRSPSYAS
modifications: Cys27 of the GLP-1 part (GLP-1(7-37) numbering; residue 21 of the chain) S-alkylated with substituent Chem. 7
B6: S{Beta-27}-[2-[2-[[2-[2-[2-[[2-[2-[2-[[(4S)-4-carboxy-4-(17-carboxyheptadecanoyl-amino)butanoyl]amino]ethoxy]ethoxy]acetyl]amino]ethoxy]ethoxy]acetyl]amino]-eth … (ligand)
chain: B5 chain with A244E
modifications: Cys27 of the GLP-1 part (GLP-1(7-37) numbering; residue 21 of the chain) S-alkylated with substituent Chem. 7
B7: S{Beta-36}-[2-[2-[[2-[2-[2-[[2-[2-[2-[[(4S)-4-carboxy-4-(17-carboxyheptadecanoyl-amino)butanoyl]amino]ethoxy]ethoxy]acetyl]amino]ethoxy]ethoxy]acetyl]amino]-eth … (ligand)
chain: HGEGTFTSDVSSYLEEQAAREFIAWLVKGCGGAQPGAQPGAQPGAQPAHPIPDSSPLLQFGGQVRQRYLYTDDAQQTEAHLEIREDGTVGGAADQSPESLLQLKALKPGVIQILGVKTSRFLCQRPDGALYGSLHFDPEACSFRELLLEDGYNVYQSEAHGLPLHLPGQKSPHRDPAPRGPARFLPLPGLPPALPEPPGILAPQPPDVGSSDPLSLVGGSQGRSPSYES
modifications: Cys36 of the GLP-1 part (GLP-1(7-37) numbering; residue 30 of the chain) S-alkylated with substituent Chem. 7
B8: S{Beta-27}-[2-[2-[[2-[2-[2-[[2-[2-[2-[[(4S)-4-carboxy-4-(17-carboxyheptadecanoyl-amino)butanoyl]amino]ethoxy]ethoxy]acetyl]amino]ethoxy]ethoxy]acetyl]amino]-eth … (ligand)
chain: B7 chain with E21C, C30G
modifications: Cys27 of the GLP-1 part (GLP-1(7-37) numbering; residue 21 of the chain) S-alkylated with substituent Chem. 7
B9: S{Beta-26}-[2-[2-[[2-[2-[2-[[2-[2-[2-[[(4S)-4-carboxy-4-(17-carboxyheptadecanoyl-amino)butanoyl]amino]ethoxy]ethoxy]acetyl]amino]ethoxy]ethoxy]acetyl]amino]-eth … (ligand)
chain: B7 chain with R20C, C30G, G219P, E228C
modifications: Cys26 of the GLP-1 part (GLP-1(7-37) numbering; residue 20 of the chain) and Cys180 of the FGF21 part (FGF21(1-181) numbering; residue 228 of the chain) each S-alkylated with substituent Chem. 7
B10: S{Beta-27}-[2-[2-[[2-[2-[2-[[2-[2-[2-[[(4S)-4-carboxy-4-(17-carboxyheptadecanoyl-amino)butanoyl]amino]ethoxy]ethoxy]acetyl]amino]ethoxy]ethoxy]acetyl]amino]-eth … (ligand)
chain: B7 chain with R20K, E21C, C30G, G219P, E228C
modifications: Cys27 of the GLP-1 part (GLP-1(7-37) numbering; residue 21 of the chain) and Cys180 of the FGF21 part (FGF21(1-181) numbering; residue 228 of the chain) each S-alkylated with substituent Chem. 7
B11: S{Beta-27}-[2-[2-[[2-[2-[2-[[2-[2-[2-[[(4S)-4-carboxy-4-(17-carboxyheptadecanoyl-amino)butanoyl]amino]ethoxy]ethoxy]acetyl]amino]ethoxy]ethoxy]acetyl]amino]-eth … (ligand)
chain: B7 chain with R20K, E21C, C30G, E228A
modifications: Cys27 of the GLP-1 part (GLP-1(7-37) numbering; residue 21 of the chain) S-alkylated with substituent Chem. 7
B12: S{Beta-26}-[2-[2-[[2-[2-[2-[[2-[2-[2-[[(4S)-4-carboxy-4-(17-carboxyheptadecanoyl-amino)butanoyl]amino]ethoxy]ethoxy]acetyl]amino]ethoxy]ethoxy]acetyl]amino]-eth … (ligand)
chain: B7 chain with R20C, C30G, E228A
modifications: Cys26 of the GLP-1 part (GLP-1(7-37) numbering; residue 20 of the chain) S-alkylated with substituent Chem. 7
B13: S{Beta-27}-[2-[2-[[2-[2-[2-[[2-[2-[2-[[(4S)-4-carboxy-4-(17-carboxyheptadecanoyl-amino)butanoyl]amino]ethoxy]ethoxy]acetyl]amino]ethoxy]ethoxy]acetyl]amino]-eth … (ligand)
chain: B7 chain with R20K, E21C, C30G
modifications: Cys27 of the GLP-1 part (GLP-1(7-37) numbering; residue 21 of the chain) S-alkylated with substituent Chem. 7
B14: S{Beta-27}-[2-[2-[[2-[2-[2-[[2-[2-[2-[[(4S)-4-carboxy-4-(17-carboxyheptadecanoyl-amino)butanoyl]amino]ethoxy]ethoxy]acetyl]amino]ethoxy]ethoxy]acetyl]amino]-eth … (ligand)
chain: B7 chain with E21C, C30G, G219P, E228C
modifications: Cys27 of the GLP-1 part (GLP-1(7-37) numbering; residue 21 of the chain) and Cys180 of the FGF21 part (FGF21(1-181) numbering; residue 228 of the chain) each S-alkylated with substituent Chem. 7
B15: [8G, 22E, 36G]GLP-1(7-37)-(GAQP)x2, … (ligand)
chain: HGEGTFTSDVSSYLEEQAAKEFIAWLVKGGGGAQPGAQPCGAQPGAQPAHPIPDSSPLLQFGGQVRQRYLYTDDAQQTEAHLEIREDGTVGGAADQSPESLLQLKALKPGVIQILGVKTSRFLCQRPDGALYGSLHFDPEACSFRELLLEDGYNVYQSEAHGLPLHLPGQKSPHRDPAPRGPARFLPLPGLPPALPEPPGILAPQPPDVGSSDPLSLVGGSQGRSPSYAS
modifications: Cys of the spacer (residue 40 of the chain) S-alkylated with substituent Chem. 7

Each binder was assayed against T1, human GLP-1 receptor (human, UniProt P43220 24-463) (assay: cell-based or functional assay).

GLP-1 receptor potency [EC50] pM 0% HSA [pM] | GLP-1 receptor potency [EC50] pM 1% HSA [pM] | Binder
29.5 | 450 | B1
9.8 | 203 | B2
28.2 | 222 | B3
9.5 | 103 | B4
15.7 | 106 | B5
9.8 | 66.6 | B6
54.6 | 394 | B7
17.2 | 104 | B8
224 | 4410 | B9
18 | 391 | B10
16.9 | 75.4 | B11
67.4 | 397 | B12
13.8 | 78.7 | B13
11.4 | 389 | B14
92.3 | 394 | B15

Each binder was assayed against FGF receptor/BKL complex (human, UniProt Q86Z14 1-1044) (assay: cell-based or functional assay).
Sequence of FGF receptor/BKL complex (Q86Z14 whole entry, one chain of several): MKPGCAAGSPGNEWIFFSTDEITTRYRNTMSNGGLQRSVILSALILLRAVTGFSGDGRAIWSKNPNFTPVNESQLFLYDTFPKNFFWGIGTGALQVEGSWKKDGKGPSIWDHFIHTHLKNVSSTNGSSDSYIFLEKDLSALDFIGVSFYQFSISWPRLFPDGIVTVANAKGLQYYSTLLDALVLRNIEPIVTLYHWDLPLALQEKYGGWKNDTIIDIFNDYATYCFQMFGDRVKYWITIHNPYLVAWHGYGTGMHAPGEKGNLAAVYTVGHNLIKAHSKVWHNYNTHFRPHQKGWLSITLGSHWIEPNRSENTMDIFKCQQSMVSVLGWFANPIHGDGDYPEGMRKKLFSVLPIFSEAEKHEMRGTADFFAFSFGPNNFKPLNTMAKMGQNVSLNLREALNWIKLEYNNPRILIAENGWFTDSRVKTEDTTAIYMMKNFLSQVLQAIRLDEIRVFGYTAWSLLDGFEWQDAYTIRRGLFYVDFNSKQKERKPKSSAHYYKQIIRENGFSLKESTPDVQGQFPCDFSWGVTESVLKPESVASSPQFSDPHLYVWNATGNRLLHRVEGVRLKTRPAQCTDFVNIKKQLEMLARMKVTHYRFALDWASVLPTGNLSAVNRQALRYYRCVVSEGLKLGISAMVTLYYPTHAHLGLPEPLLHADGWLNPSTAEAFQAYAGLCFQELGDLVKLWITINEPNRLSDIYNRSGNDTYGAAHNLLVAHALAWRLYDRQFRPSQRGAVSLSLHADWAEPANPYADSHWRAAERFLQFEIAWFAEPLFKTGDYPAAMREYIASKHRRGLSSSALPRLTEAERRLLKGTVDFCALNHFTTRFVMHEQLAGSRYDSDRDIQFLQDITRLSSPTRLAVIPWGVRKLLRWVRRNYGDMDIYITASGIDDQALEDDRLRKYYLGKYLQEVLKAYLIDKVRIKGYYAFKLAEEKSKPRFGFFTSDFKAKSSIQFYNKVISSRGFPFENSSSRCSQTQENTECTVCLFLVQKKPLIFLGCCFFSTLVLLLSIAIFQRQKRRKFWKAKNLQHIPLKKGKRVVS

FGF1 receptor potency [EC50] nM 0.1% HSA [nM] | FGF21 receptor potency [EC50] nM 0% HSA [nM] | Binder
18 | 0.22 | B1
1.42 | 0.67 | B2
0.57 | 0.32 | B3
1.14 | 0.47 | B4
0.45 | 0.24 | B5
0.87 | 0.41 | B6
0.73 | 0.41 | B7
0.43 | 0.17 | B8
8.97 | 0.24 | B9
7.57 | 0.2 | B10
0.38 | 0.13 | B11
0.51 | 0.43 | B12
0.64 | 0.45 | B13
8 | 1.2 | B14
1.36 | 0.19 | B15

Target: T1, human GLP-1 receptor
Experiment: cell-based or functional assay
Remark: another data set of the same source

GLP-1R potency loss against Chem. 24, absence of HSA [fold] | GLP-1R potency loss against Chem. 24, presence of HSA [fold] | Binder
40 | 26 | B9
> 10 | – | B12
